Paper PMC12079483 (2025)

Tests used:
[1] = molecular target: D20-20K (IL-2 with 20K PEG conjugated at Asp20) (UniProt P60568 21-153, D20 to NAEK, Nε-2-azideoethyloxycarbonyl-L-lysine (NAEK) at position 20, conjugated with DBCO-tethered PEG of 20 kDa by copper-free click reaction); test: SPR
[2] = molecular target: Y45-20K (IL-2 with 20K PEG conjugated at Tyr45) (UniProt P60568 21-153, Y45 to NAEK, Nε-2-azideoethyloxycarbonyl-L-lysine (NAEK) at position 45, conjugated with DBCO-tethered PEG of 20 kDa by copper-free click reaction); test: SPR

B1: extracellular domains of the trimeric IL-2 receptor (IL-2Rαβγ) (complex)
chain 1: ELCDDDPPEIPHATFKAMAYKEGTMLNCECKRGFRRIKSGSLYMLCTGNSSHSSWDNQCQCTSSATRNTTKQVTPQPEEQKERKTTEMQSPMQPVDQASLPGHCREPPPWENEATERIYHFVVGQMVYYQCVQGYRALHRGPAESVCKMTHGKTRWTQPQLICTGEMETSQFPGEEKPQASPEGRPESETSCLVTTTDFQIQTEMAATMETSIFTTEYQ
chain 2: AVNGTSQFTCFYNSRANISCVWSQDGALQDTSCQVHAWPDRRRWNQTCELLPVSQASWACNLILGAPDSQKLTTVDIVTLRVLCREGVRWRVMAIQDFKPFENLRLMAPISLQVVHVETHRCNISWEISQASHYFERHLEFEARTLSPGHTWEEAPLLTLKQKQEWICLETLTPDTQYEFQVRVKPLQGEFTTWSPWSQPLAFRTKPAALGKDT
chain 3: LNTTILTPNGNEDTTADFFLTTMPTDSLSVSTLPLPEVQCFVFNVEYMNCTWNSSSEPQPTNLTLHYWYKNSDNDKVQKCSHYLFSEEITSGCQLQKKEIHLYQTFVVQLQDPREPRRQATQMLKLQNLVIPWAPENLTLHKLSESQLELNWNNRFLNHCLEHLVQYRTDWDHSWTEQSVDYRHKFSLPSVDGQKRYTFRVRSRFNPLCGSAQHWSEWSHPIHWGSNTSKENPFLFALEA
Binder B1 has a Kd [1] of 58.1 nM.

B2: extracellular domains of the dimeric IL-2 receptor (IL-2Rβγ) (complex)
chain 1: AVNGTSQFTCFYNSRANISCVWSQDGALQDTSCQVHAWPDRRRWNQTCELLPVSQASWACNLILGAPDSQKLTTVDIVTLRVLCREGVRWRVMAIQDFKPFENLRLMAPISLQVVHVETHRCNISWEISQASHYFERHLEFEARTLSPGHTWEEAPLLTLKQKQEWICLETLTPDTQYEFQVRVKPLQGEFTTWSPWSQPLAFRTKPAALGKDT
chain 2: LNTTILTPNGNEDTTADFFLTTMPTDSLSVSTLPLPEVQCFVFNVEYMNCTWNSSSEPQPTNLTLHYWYKNSDNDKVQKCSHYLFSEEITSGCQLQKKEIHLYQTFVVQLQDPREPRRQATQMLKLQNLVIPWAPENLTLHKLSESQLELNWNNRFLNHCLEHLVQYRTDWDHSWTEQSVDYRHKFSLPSVDGQKRYTFRVRSRFNPLCGSAQHWSEWSHPIHWGSNTSKENPFLFALEA
Binder B2 has a Kd [2] of 32.8 nM.

B3: extracellular domain of the IL-2 receptor β chain (IL-2Rβ) (receptor)
chain: AVNGTSQFTCFYNSRANISCVWSQDGALQDTSCQVHAWPDRRRWNQTCELLPVSQASWACNLILGAPDSQKLTTVDIVTLRVLCREGVRWRVMAIQDFKPFENLRLMAPISLQVVHVETHRCNISWEISQASHYFERHLEFEARTLSPGHTWEEAPLLTLKQKQEWICLETLTPDTQYEFQVRVKPLQGEFTTWSPWSQPLAFRTKPAALGKDT
Work on B3 yielded a Kd [2] of 690 nM.

B4: extracellular domain of the IL-2 receptor α chain (IL-2Rα, CD25) (receptor)
chain: ELCDDDPPEIPHATFKAMAYKEGTMLNCECKRGFRRIKSGSLYMLCTGNSSHSSWDNQCQCTSSATRNTTKQVTPQPEEQKERKTTEMQSPMQPVDQASLPGHCREPPPWENEATERIYHFVVGQMVYYQCVQGYRALHRGPAESVCKMTHGKTRWTQPQLICTGEMETSQFPGEEKPQASPEGRPESETSCLVTTTDFQIQTEMAATMETSIFTTEYQ
B4 showed a Kd [1] of 99.9 nM.
